Experimental data: patent US20130079286A1 (Pieris, published 2013)

B1: recombinant wild-type human Lipocalin 2 (other)
chain: QDSTSDLIPAPPLSKVPLQQNFQDNQFQGKWYVVGLAGNAILREDKDPQKMYATIYELKEDKSYNVTSVLFRKKKCDYWIRTFVPGSQPGEFTLGNIKSYPGLTSYLVRVVSTNYNQHAMVFFKKVSQNREYFKITLYGRTKELTSELKENFIRFSKSLGLPENHIVFPVPIDQCIDG
notes: also called wt Lcn2; wild type Lcn2
B2: Lcn2 mutein US7 (designed binder)
chain: QDSTSDLIPAPPLSKVPLQQNFQDNQFHGKWYVVGVAGNKSLREDKDPWKMYATIYELKEDKSYNVTSVGFGTKKCHYKIRTFVPGSQPGEFTLGRIKSRPGRTSALVRVVSTNYNQHAMVFFKVVQQNRESFNITLYGRTKELTSELKENFIRFSKSLGLPENHIVFPVPIDQCIDG

Columns and labels:
[1] = molecular target: T1, Aβ40 peptide, non-labeled (human); experiment: SPOT membrane of overlapping Aβ40 peptides
T1 construct: Non-labeled synthetic peptide (W. M. Keck Laboratory); also called Abeta40; amyloid beta peptide

[2] = molecular target: T2, recombinant human fibronectin fragment FN7B8 (human, UniProt P02751 1173-1448); experiment: ELISA: FN7B8 coated, Lcn2 protein titrated, detected via Strep-tag II with Streptavidin-alkaline phosphatase + pNPP
T2 construct: no separate number is printed for the protein, so the entry may be a nucleic acid
Protocol: FIG. 12 depicts binding activity in the ELISA. A microliter plate was coated with the purified proteins FN7B8 and FN789 and incubated with a dilution series of the selected Lcn2 muteins, followed by detection with Streptavidin-alkaline-phosphatase conjugate and pNPP substrate.
To adsorb FN7B8 or FN789 onto the surface of a 96-well Nunc Maxisorp plate (Thermo Fisher Scientific, Langenselbold, Germany) 50 μl of a 100 μg/ml protein solution in TBS/E was added per well and incubated at room temperature for 2 h. Additionally, to include control proteins, blank wells were exposed to 120 μl 2% (w/v) BSA (AppliChem, Darmstadt, Germany) in TBS/ET. […] The wells were washed again and bound Lcn2 muteins were detected with 50 μL of Streptavidin-alkaline phosphatase conjugate (GE Healthcare, Munich, Germany) diluted 1:1500 in TBS/T for 1 h, followed by signal development in the presence of 50 μl 0.5 mg/ml p-nitrophenyl phosphate in 100 mM Tris/HCl, 100 mM NaCl, 5 mM MgCl₂, pH 8.8. The time course of absorption AA/At at 405 nm was measured in a SpectraMax 250 reader (Molecular Devices, Sunnyvale, Calif.) and the data were fitted with KaleidaGraph software (Synergy software, Reading, Pa.) to the equation

[3] = molecular target: T3, biotinylated Aβ40 peptide (human, C-terminal biotin group attached via a lysine spacer); experiment: capture ELISA: 1 µM Lcn2 protein captured via Strep-tag II on coated StrepMAB-Immo, biotinylated target titrated, ExtrAvidin/AP + pNPP
T3 construct: Synthetic peptide (Peptide Speciality Laboratory) with a C-terminal biotin on a lysine spacer; used in the capture ELISAs
Protocol: (§1) FIG. 5 depicts the binding activity of the Lcn2 muteins H1-G1, S1-A4, and US7 in capture ELISAs with different biotinylated Aβ targets. StrepMAB-Immo at 10 μg/ml was immobilized on microtitre plates and employed for capturing of 1 JAM Lcn2 muteins via the Strep-tag H. In figures A to C the binding of the Lcn2 muteins S1-A4 and US7 to (A) biotinylated Aβ40, (B) biotinylated Trx-Aβ28, and (C) biotinylated MBP-Aβ40 are shown. Binding was detected by incubation with ExtrAvidin/AP and a subsequent chromogenic reaction with pNPP. Ovalbumin (Ova), thioredoxin (Trx), and maltose binding protein (MBP) were used as negative controls. Additionally, binding of wild-type (wt) lipocalin was tested. The data were fitted to a monovalent binding model.
(§2) For selective capturing of the Lcn2 muteins carrying the C-terminal Strep-tag II (Schmidt and Skerra (2007) Nat. Protoc. 2, 1528-1535), a 96-well MaxiSorp polystyrene microtitre plate (Nunc, Langenselbold, Germany) was coated with 10 μg/mL StrepMAB-Immo (IBA, Göttingen, Germany) in PBS over night at 4° C. and blocked with 3% (w/v) BSA in PBS/T at room temperature for 1 h. After 3 washing steps with PBS/T, 50 μL of a 1 μM solution of the purified Lcn2 muteins from Example 7 were applied to all wells for 1 h. After washing, 50 μL of a dilution series of the biotinylated targets Aβ40, MBP-Aβ40 or Trx-Aβ28 from Example 2 were added and incubated for 1 h whereby the biotinylated forms of Ova, MBP and Trx from Example 2 served as negative control proteins. The wells were washed again and bound conjugate was detected with 50 μL of ExtrAvidin/AP conjugate (Sigma-Aldrich, Steinheim, Germany) diluted 1:5000 in PBS/T for 1 h, followed by signal development in the presence of 100 μL 0.5 mg/mL p-nitrophenyl phosphate (AppliChem, Darmstadt, Germany) in 100 mM Tris/HCl, pH 8.8, 100 mM NaCl, 5 mM MgCl₂.

Trx-Aβ28 fusion protein [4] = molecular target: T4, Trx-Aβ28 fusion protein (Escherichia coli (strain K12), UniProt P0AA25 1-76 = thioredoxin, Biotin-labelled through an NHS ester (2:1) in the capture and competitive ELISAs; unlabeled in the direct ELISA and as competitor.); experiment: as above
T4 construct: the entry may be a nucleic acid; also called TrxAbeta28H6
Protocol: as §1, §2

ovalbumin = molecular target: T5, ovalbumin (UniProt P01012 2-386); experiment: as above
T5 sequence (looked up): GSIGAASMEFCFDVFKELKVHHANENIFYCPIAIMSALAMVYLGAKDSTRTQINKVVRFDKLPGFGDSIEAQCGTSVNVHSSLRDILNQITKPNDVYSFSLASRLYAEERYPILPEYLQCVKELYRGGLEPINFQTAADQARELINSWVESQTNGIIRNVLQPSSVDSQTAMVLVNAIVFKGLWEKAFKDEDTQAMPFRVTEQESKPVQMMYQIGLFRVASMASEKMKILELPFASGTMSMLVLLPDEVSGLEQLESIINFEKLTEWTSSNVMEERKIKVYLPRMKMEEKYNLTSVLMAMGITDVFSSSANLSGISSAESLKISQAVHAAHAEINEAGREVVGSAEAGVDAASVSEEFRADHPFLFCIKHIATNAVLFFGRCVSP
Protocol: as §1, §2

central peptide Aβ16-27 = molecular target: T6, central peptide Aβ16-27; experiment: capture ELISA: mutein captured, Aβ16-27 titrated
T6 construct: Bought from the Peptide Speciality Laboratory
T6 peptide: KLVFFAEDVGSN

[5] = molecular target: T1, Aβ40 peptide, non-labeled; experiment: SPOT membrane of overlapping Aβ40 peptides, 100 nM mutein
MBP-Aβ40 fusion protein [6] = molecular target: T7, MBP-Aβ40 fusion protein; experiment: SPR (Biacore X), MBP-Aβ40 amine-coupled, mutein as analyte
T7 construct: the entry may be a nucleic acid; Biotin-labelled in the capture ELISA, unlabeled in the direct ELISA and SPR; also called MBP-Abeta40
Protocol: (§3) Real time analysis of Lcn2 muteins was performed on a Biacore X system (Biacore, Uppsala, Sweden) using PBS/T (PBS containing 0.005% (v/v) Tween 20) as running buffer. A 50 μg/mL solution of MBP-Aβ40 from Example 2 in 10 mM Na-acetate, pH 4.5 was immobilized onto a […] chip (Xantec, Düsseldorf, Germany) using standard amine coupling chemistry, resulting in a ligand density of 1455 resonance units (RU). […] The sensorgrams were corrected by subtraction of the corresponding signals measured for the control channel, which had been activated and blocked with ethanolamine. […] During this step the kₒₙ and koff rates were fitted globally, while the maximum response difference Rₘₐₓ was fitted locally for each curve.

MBP-Aβ40 fusion protein [7] = molecular target: T7, MBP-Aβ40 fusion protein; experiment: SPR (Biacore), MBP-Aβ40 amine-coupled (1455 RU), mutein as analyte
Protocol: (§4) FIG. 8 depicts the kinetic real time analysis of Lcn2 muteins S1-A4 (A) and US7 (B) measured on a Biacore instrument at a flow rate of 10 μl/min. The MBP-Aβ40 fusion protein was coupled via amine chemistry on a CMD 200I chip (ΔRU=1455) and each of the purified Lcn2 muteins was applied in a series at different concentrations. The measured signal is shown as a grey line whereas the curve fit is depicted as a black line in each case.
as §3

MBP-Aβ40 fusion protein [8] = molecular target: T7, MBP-Aβ40 fusion protein; experiment: capture ELISA: mutein captured, biotinylated MBP-Aβ40 titrated
Protocol: as §1
For selective capturing of the Lcn2 muteins carrying the C-terminal Strep-tag II (Schmidt and Skerra (2007) Nat. Protoc. 2, 1528-1535), a 96-well MaxiSorp polystyrene microtitre plate (Nunc, Langenselbold, Germany) was coated with 10 μg/mL StrepMAB-Immo (IBA, Göttingen, Germany) in PBS over night at 4° C. and blocked with 3% (w/v) BSA in PBS/T at room temperature for 1 h. After 3 washing steps with PBS/T, 50 μL of a 1 μM solution of the purified Lcn2 muteins from Example 7 were applied to all wells for 1 h. […]

Trx-Aβ28 fusion protein [9] = molecular target: T4, Trx-Aβ28 fusion protein; experiment: capture ELISA: mutein captured, biotinylated Trx-Aβ28 titrated
Protocol: as §1, §2

MBP-Aβ40 fusion protein [10] = molecular target: T7, MBP-Aβ40 fusion protein; experiment: direct ELISA: MBP-Aβ40 coated, mutein titrated, detected via Strep-tag II
Protocol: (§5) The Aβ targets Trx-Aβ28 and MBP-Aβ40 as well as the control protein maltose binding protein (MBP) were immobilized at 2 μM in PBS over night. Bound Lcn2 muteins were detected via their Strep-tag II using Streptavidin/AP followed by a chromogenic reaction with pNPP. As a control, the binding of wild-type (wt) lipocalin was tested. The data were fitted to a monovalent binding model.
(§6) Alternatively, for a “direct” ELISA, 2 μM unlabeled Aβ40 target from Example 2 was adsorbed onto a 96-well MaxiSorp polystyrene microliter plate (Nunc, Langenselbold, Germany) and incubated with the purified Lcn2 mutein, which was detected via the Strep-tag II using a 1:1500 dilution of Streptavidin/AP conjugate (GE Healthcare UK Ltd, Buckinghamshire, UK). As a control, 2 μM MBP from Example 2 was adsorbed onto the ELISA plate. Absorption at 405 nm was measured in a SpectraMax 250 reader (Molecular Devices, Sunnyvale, USA).

Trx-Aβ28 fusion protein [11] = molecular target: T4, Trx-Aβ28 fusion protein; experiment: direct ELISA: Trx-Aβ28 coated, mutein titrated, detected via Strep-tag II
Protocol: as §5, §6

MBP-Aβ40 fusion protein [12] = molecular target: T7, MBP-Aβ40 fusion protein; experiment: SPR (Biacore), MBP-Aβ40 amine-coupled; same experiment as the 1st table, row 20, column 3, printed with more digits
Protocol: as §4, §3

[13] = molecular target: T3, biotinylated Aβ40 peptide; experiment: capture ELISA: mutein captured via Strep-tag II on StrepMAB-Immo, biotinylated Aβ40 titrated
Protocol: as §1, §2

Trx-Aβ28 fusion protein [14] = molecular target: T4, Trx-Aβ28 fusion protein; experiment: competitive ELISA: mutein captured, 40 nM biotinylated Trx-Aβ28 as tracer, unlabeled Trx-Aβ28 varied as competitor
Protocol: Alternatively, a “competitive” ELISA was performed in a similar manner as the “capture” ELISA described above. Again, after immobilizing StrepMAB-Immo and washing, 50 μL of a 1 μM solution of the purified Lcn2 mutein from Example 7 was applied to all wells for 1 h. After washing, the biotinylated target Trx-Aβ28 from Example 2 was applied at a fixed concentration of 5 nM (for S1-A4) or 40 nM (for US7) in the presence of varying concentrations of the free non-labeled Trx-Aβ28 target as competitor. Starting with a 100-fold excess, the competitor concentration was decreased by the factor 3 in each step. In this case, the data were fitted to the sigmoidal equation

T3 sequence (peptide, as listed by the source): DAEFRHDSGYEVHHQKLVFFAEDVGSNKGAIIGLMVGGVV
T1 sequence (peptide, as listed by the source): as above
T2 sequence (P02751 other isoform, or with tags, fused parts or gaps limits assumed): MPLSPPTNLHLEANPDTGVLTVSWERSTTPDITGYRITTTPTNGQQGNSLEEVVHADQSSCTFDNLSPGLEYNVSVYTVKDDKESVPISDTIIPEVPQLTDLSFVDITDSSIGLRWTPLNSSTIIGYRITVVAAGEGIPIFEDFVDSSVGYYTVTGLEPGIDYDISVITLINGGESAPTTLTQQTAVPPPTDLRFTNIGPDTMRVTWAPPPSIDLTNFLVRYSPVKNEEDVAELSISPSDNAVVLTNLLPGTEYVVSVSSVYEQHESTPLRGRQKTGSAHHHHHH

Binder	binding result [1]	binding result [2]	binding result [3]	binding result (Trx-Aβ28 fusion protein [4])	binding result (ovalbumin)	Kd (central peptide Aβ16-27) [nM]	binding result [5]	Kd (MBP-Aβ40 fusion protein [6]) [nM]	koff (MBP-Aβ40 fusion protein [7]) [s⁻¹]	kon (MBP-Aβ40 fusion protein [7]) [M⁻¹ s⁻¹]	Kd (MBP-Aβ40 fusion protein [8]) [nM]	Kd (Trx-Aβ28 fusion protein [9]) [nM]	Kd (MBP-Aβ40 fusion protein [10]) [nM]	Kd (Trx-Aβ28 fusion protein [11]) [nM]	Kd (MBP-Aβ40 fusion protein [12]) [nM]	Kd [13] [nM]	Kd (Trx-Aβ28 fusion protein [14]) [nM]
B1	no binding (tested: 100 nM)	no binding (tested: 250 nM)	no binding	no binding	no binding (tested: 250 nM)												
B2					no binding (tested: 250 nM)	2.1	binds	1.3	0.000252	202000	11.4	2.4	49.7	9.6	1.25	6.8	76.9
